Where “and” joins values, the source holds several entries; their conditions need not be identical. Identical values can stand only once. Where no end group is shown, it is not given here.
Experiments:
[1] = biological target: bovine PACAP receptor protein from bovine cerebrum (bovine) (UniProt Q29627); assay: radioligand
[2] = biological target: T1, rat PACAP receptor protein Type I-A (pRPR3-A, derived from pRPACAPR46-5), expressed in CHO or Sf9 cells (rat, UniProt P32215 20-523); assay: competition with 100 pM [125I]-PACAP27, membrane fraction of pRPR3-A-introduced CHO cells (FIG. 40A)
T1 construct: also called pRPR3-A-introduced CHO cells; clone A12
T1 sequence: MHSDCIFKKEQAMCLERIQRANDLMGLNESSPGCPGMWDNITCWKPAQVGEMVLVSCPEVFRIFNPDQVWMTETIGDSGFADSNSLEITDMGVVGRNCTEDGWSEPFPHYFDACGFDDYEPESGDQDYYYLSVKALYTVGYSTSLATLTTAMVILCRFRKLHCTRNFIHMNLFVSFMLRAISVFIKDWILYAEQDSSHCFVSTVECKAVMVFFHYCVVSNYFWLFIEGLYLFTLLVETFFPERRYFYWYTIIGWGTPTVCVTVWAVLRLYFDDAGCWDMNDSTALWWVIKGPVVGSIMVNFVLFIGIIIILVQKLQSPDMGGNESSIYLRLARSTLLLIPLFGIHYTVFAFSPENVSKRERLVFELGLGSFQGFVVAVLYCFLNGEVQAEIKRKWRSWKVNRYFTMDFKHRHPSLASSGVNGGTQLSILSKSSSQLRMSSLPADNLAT
Experimental: (§1) The pRPR3-A-introduced and pRPR4-B-introduced CHO cells obtained in (2) described above were each disrupted in sodium carbonate buffer containing 1 mM EDTA, 0.5 mM PMSF, 20 μg/ml leupeptin, 4 μg/ml E-64 and 1 μg/ml pepstatin with a Polytron homogenizer (Kinematica) to prepare membrane fractions. Using the membrane fractions, complex binding experiments were conducted. […] The reaction was conducted at 25° C. for 1 hour, and bound ligands were separated from free ligands by filtration through a filter. […] The amount of bound ligands was measured with a γ-counter.

[3] = biological target: T2, rat PACAP receptor protein Type I-B (pRPR4-B, derived from pRPACAPR12), expressed in CHO or Sf9 cells (rat, UniProt P32215 20-523); assay: competition with 100 pM [125I]-PACAP27, membrane fraction of pRPR4-B-introduced CHO cells (FIG. 40B)
T2 construct: also called pRPR4-B-introduced CHO cells; clone B17
T2 sequence: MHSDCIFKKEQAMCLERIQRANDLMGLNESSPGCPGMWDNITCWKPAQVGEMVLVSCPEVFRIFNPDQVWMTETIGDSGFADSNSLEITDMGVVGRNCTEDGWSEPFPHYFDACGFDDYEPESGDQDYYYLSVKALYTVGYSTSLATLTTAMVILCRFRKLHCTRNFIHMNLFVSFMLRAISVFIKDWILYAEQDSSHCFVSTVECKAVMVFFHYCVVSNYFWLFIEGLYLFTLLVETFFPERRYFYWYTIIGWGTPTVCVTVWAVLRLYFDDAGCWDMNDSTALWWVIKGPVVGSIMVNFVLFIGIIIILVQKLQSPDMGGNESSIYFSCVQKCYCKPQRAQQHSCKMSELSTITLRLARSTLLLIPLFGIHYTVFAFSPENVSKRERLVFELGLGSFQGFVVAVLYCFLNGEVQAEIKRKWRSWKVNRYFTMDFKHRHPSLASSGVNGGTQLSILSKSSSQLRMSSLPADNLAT
Experimental: as §1

[4] = biological target: T3, bovine PACAP receptor protein Type I-A encoded by pBPR-T, expressed in CHO cells (UniProt Q29627 38-513); assay: radioligand
T3 chain: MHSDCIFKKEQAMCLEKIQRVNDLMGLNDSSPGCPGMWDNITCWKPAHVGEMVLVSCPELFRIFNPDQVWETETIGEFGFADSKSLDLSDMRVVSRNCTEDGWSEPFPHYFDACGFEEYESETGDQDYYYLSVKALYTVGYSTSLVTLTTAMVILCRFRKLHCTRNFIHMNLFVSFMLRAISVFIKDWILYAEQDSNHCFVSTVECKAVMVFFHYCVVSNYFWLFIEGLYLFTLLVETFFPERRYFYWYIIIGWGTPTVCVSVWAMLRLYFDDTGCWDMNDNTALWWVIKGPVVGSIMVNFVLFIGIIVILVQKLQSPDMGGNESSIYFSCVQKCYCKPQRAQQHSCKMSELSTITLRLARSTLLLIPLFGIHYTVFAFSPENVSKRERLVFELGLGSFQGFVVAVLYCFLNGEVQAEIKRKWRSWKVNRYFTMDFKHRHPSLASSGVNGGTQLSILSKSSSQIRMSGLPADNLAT

[5] = biological target: bovine PACAP receptor protein from bovine cerebrum (bovine) (UniProt Q29627); assay: saturation binding experiment; fraction: Hydroxyapatite
[6] = biological target: bovine PACAP receptor protein from bovine cerebrum (bovine) (UniProt Q29627); assay: saturation binding experiment; fraction: Gel filtration (final purified sample)
[7] = biological target: bovine PACAP receptor protein from bovine cerebrum (bovine) (UniProt Q29627); assay: saturation binding experiment; fraction: Ion exchange
[8] = biological target: bovine PACAP receptor protein from bovine cerebrum (bovine) (UniProt Q29627); assay: saturation binding experiment; fraction: Avidin-agarose
[9] = biological target: T1, rat PACAP receptor protein Type I-A …; assay: 100 pM [125I]-PACAP27 on whole CHO cells, gamma counting (FIG. 39)
Experimental: (§2) The cells were incubated until they covered the bottom surface of the tissue culture plates completely. […] The cells were washed twice with a buffer for the binding experiment [Hank's solution (pH 7.4) containing 5 mM HEPES, 5% CRAPS and 0.1% BSA]. […] After incubation at 37° C. for 1 hour, the cells washed three times with the buffer for the binding experiment were dissolved with 1 ml of 0.5 N NaOH and 0.1% SDS for each well, and the radioactivity contained therein was measured with a γ-counter.

[10] = biological target: T2, rat PACAP receptor protein Type I-B …; assay: as above
Experimental: as §2

[11] = biological target: bovine PACAP receptor protein from bovine cerebrum (bovine) (UniProt Q29627); assay: saturation binding experiment; fraction: Membrane fraction
[12] = biological target: bovine PACAP receptor protein from bovine cerebrum (bovine) (UniProt Q29627); assay: saturation binding experiment; fraction: Solubilized product
[13] = biological target: bovine PACAP receptor protein from bovine cerebrum (bovine) (UniProt Q29627); assay: saturation binding experiment; fraction: Micro hydroxyapatite

[^125I]-PACAP27
Kd [1]: 29 pM and 30 pM

B1: PACAP27 (peptide)
peptide: HSDGIFTDSYSRYRKQMAVKKYLAAVL-NH2
notes: also called unlabeled PACAP27; cold PACAP27
binding result [2]: binds | binding result [3]: binds

B2: [^125I]-PACAP27 (peptide)
peptide: HSDGIFTDSYSRYRKQMAVKKYLAAVL-NH2
modifications: also: 125I label on one Tyr, which one not given here
notes: also called radioactive iodine-labelled PACAP27
Kd [4]: 103 pM | Specific activity [5]: 25 pmol/mg | Total activity (maximum binding of [125I]PACAP27) [5]: 3350 pmol | Specific activity [6]: 16000 pmol/mg | Total activity (maximum binding of [125I]PACAP27) [6]: 671 pmol | Specific activity [7]: 9.9 pmol/mg | Total activity (maximum binding of [125I]PACAP27) [7]: 4700 pmol | Total activity (maximum binding of [125I]PACAP27) [8]: 2040 pmol | binding result [9]: binds | binding result [10]: binds | Specific activity [11]: 1.3 pmol/mg | Total activity (maximum binding of [125I]PACAP27) [11]: 8120 pmol | Specific activity [12]: 1.9 pmol/mg | Total activity (maximum binding of [125I]PACAP27) [12]: 4560 pmol | Total activity (maximum binding of [125I]PACAP27) [13]: 1720 pmol

From patent US20020155533A1 (Takeda / Millennium, published 2002)
